Source: publication PMC11882849, “Dynamic and intricate regulation by the Csr sRNAs in the Arctic Pseudoalteromonas fuliginea”

Molecular target: CsrA (Pseudoalteromonas fuliginea BSW20308, UniProt A0A063KJE6 1-63)
Assay: EMSA; 1 uM CsrA; 0.1-0.5 nM RNA, 40 mM NaCl, 4 mM Tris pH 8.0, 4 mM MgCl2, 4% glycerol, 100 mg/ml BSA (so in the source), 20 mM DTT, room temperature 30 min, native PAGE
Settings: protein: recombinant; tags: C-terminal His6; chain copies: 2

B1: Pf3 sRNA (structured_RNA)
RNA: AAUAAAAAAACGGAAAUAGCUAUAAGGAAAGUAGCGCGGCACGACUACAUAGCACAAGAUUGGUGCUACUAAAGGAAAUAAUAAAAAAGAGUCAGGAAGACCGAUAAUAAUAAAAACUCAUGGAAGUUUAAUAAUAAAAACAAAAUGGAAUGCUACAAGGAACGUAAAAAUAAUAACAAUACGGACUGAUAAUAAUAAAAAUAAUAAAGACUAAAAAAAGUCGAAGGGAGA
B1: binds.
